To fix the notation:
B1: OR4K15 (parent)
chain: GUUAACGGUCAUAGGCCAUGGAAACUAGGAGCACCAUUUCGCUGCCAGUGAAGAAAUGAACAAAGAAAAUCUGGGCCAGGCAGGCAUCAAAAGAAAUAGUCUUGCGCUCAACCAGAAAGUCUGUAAUCAUUUUAAGGGUA

In the data set the parent is B1. Nature of the data set: self-cleavage, relative activity (ratio to wild type); higher = more cleavage; in vitro, sequencing; the parent is a self-cleaving ribozyme.
For the variant GUUAACGGUCAUAGGCCAUGGAAACUUGGAGCACCAUUUCGCUGCCAGUGAAGAAAUGAACAAAGAAAAUCUGGGCCAGGCAGGCAUCAAAAGAAAUAGUCUUGCGCUCAACCAGAAAGACUGUAAUCAUUUUAAGGGUA [A27U U120A], the self-cleavage is 1.85.

Turning to GUUAACGGUCAUAGGCCAUGGAAACUAUGAGCACCAUUUCGCUGCCAGUGAAGAAAUGAACAAAGAAAAUCUGGGCCAGGCAGGCAUCAAAAGAAAUAGUCUUGCGCUCAACCAGAAAGUCUGUAAUCAUUUUCAGGGUA [G28U A134C], the self-cleavage was 2.09.

As for GUUAACGGUCAUAGGCCAUGGAAACUAAGAGCACCAUUUCGCUGCCAGUGAAGAAAUGAACAAAGAAAAUCUGGGCCAGGCAGGCAUCAAAAGAAAUAGUCUUGCGCUCAACCAGAAAGUCUGUAAUCACUUUAAGGGUA [G28A U130C], the self-cleavage was found to be 1.2.

As to GUUAACGGUCAUAGGCCAUGGAAACUAUGAGCACCAUUUCGCUGCCAGUGAAGAAAUGAACAAAGAAAAUCUGGGCCAGGCAGGCAUCAAAAGAAAUAGUCUUGCGCUCAUCCAGAAAGUCUGUAAUCAUUUUAAGGGUA [G28U A111U], the self-cleavage worked out at 0.3.

Consider GUUAACGGUCAUAGGCCAUGGAAACUUGGAGCACCAUUUCGCUGCCAGUGAAGAAAUGAACAAAGAAAAUCUGGGCCAGGCAGGCAUCAAAAGAAAUAGUCCUGCGCUCAACCAGAAAGUCUGUAAUCAUUUUAAGGGUA [A27U U102C], for which the self-cleavage worked out at 2.12.

For the variant GUUAACGGUCAUAGGCCAUGGAAACUAAGAGCACCAUUUCGCUGCCAGUGAAGAAAUGAACAAAGAAAAUCUGGGCCAGGCAGGCUUCAAAAGAAAUAGUCUUGCGCUCAACCAGAAAGUCUGUAAUCAUUUUAAGGGUA [G28A A86U], the self-cleavage was 1.88.

GUUAACGGUCAUAGGCCAUGGAAACUAAGAGCACCAUUUCGCUGCCAGUGAAGAAAUGAACAAAGAGAAUCUGGGCCAGGCAGGCAUCAAAAGAAAUAGUCUUGCGCUCAACCAGAAAGUCUGUAAUCAUUUUAAGGGUA [G28A A67G]: the self-cleavage amounted to 1.55.

Regarding GUUAACGGUCAUAGGCCAUGGAAACUAUGAGCACCAUUUCGCUGCCGGUGAAGAAAUGAACAAAGAAAAUCUGGGCCAGGCAGGCAUCAAAAGAAAUAGUCUUGCGCUCAACCAGAAAGUCUGUAAUCAUUUUAAGGGUA [G28U A47G], the self-cleavage was determined as 2.28.

Turning to GUUAACGGUCAUAGGCCAUGGAAACUUGGAGCACCAUUUCGCUGCCAGCGAAGAAAUGAACAAAGAAAAUCUGGGCCAGGCAGGCAUCAAAAGAAAUAGUCUUGCGCUCAACCAGAAAGUCUGUAAUCAUUUUAAGGGUA [A27U U49C], the self-cleavage is 2.12.

GUUAACGGUCAUAGGCCAUGGAAACUAAGAGCACCAUUUCGCUGCCAGUGAGGAAAUGAACAAAGAAAAUCUGGGCCAGGCAGGCAUCAAAAGAAAUAGUCUUGCGCUCAACCAGAAAGUCUGUAAUCAUUUUAAGGGUA [G28A A52G]: the self-cleavage turned out to be 1.9.

For the variant GUUAACGGUCAUAGGCCAUGGAAACUUGGAGCACCAUUCCGCUGCCAGUGAAGAAAUGAACAAAGAAAAUCUGGGCCAGGCAGGCAUCAAAAGAAAUAGUCUUGCGCUCAACCAGAAAGUCUGUAAUCAUUUUAAGGGUA [A27U U39C], the self-cleavage came to 0.93.

For GUUAACGGUCAUAGGCCAUGGAAACUUGGAGCACCAUUACGCUGCCAGUGAAGAAAUGAACAAAGAAAAUCUGGGCCAGGCAGGCAUCAAAAGAAAUAGUCUUGCGCUCAACCAGAAAGUCUGUAAUCAUUUUAAGGGUA [A27U U39A], the self-cleavage is 1.49.

On to GUUAACGGUCAUAGGCCAUGGAAACUUGGAGCACCAUUUCGCUGCCAGUGAAGAAAUGAACAAAGAAAAUCUGGGCCAGGCAGGCAUCAAAAGAAAUAAUCUUGCGCUCAACCAGAAAGUCUGUAAUCAUUUUAAGGGUA [A27U G99A], for which the self-cleavage was determined as 0.6.

As to GUUAACGGUCAUAGGCCAUGGAAACUAGAGGCACCAUUUCGCUGCCAGUGAAGAAAUGAACAAAGAAAAUCUGGGCCAGGCAGGCAUCAAAAGAAAUAGUCUUGCGCUCAACCAGAAAGUCUGUAAUCAUUUUAAGGGUA [G29A A30G], the self-cleavage stood at 1.16.

In the case of GUUAACGGUCAUAGGCCAUGGAAACUAAGAGCACCAUUUCGCUGCCAGUGAAGAAAUGAACAAAGAAGAUCUGGGCCAGGCAGGCAUCAAAAGAAAUAGUCUUGCGCUCAACCAGAAAGUCUGUAAUCAUUUUAAGGGUA [G28A A68G], the self-cleavage worked out at 2.39.

With GUUAACGGUCAUAGGCCAUGGAAACUAAGAGCACCAUUUCGCUGCCAGUGAAGAAAUGAACAAAGAAAAUCUGGGCCAGGCAGGCAUCAAAAGAAAUGGUCUUGCGCUCAACCAGAAAGUCUGUAAUCAUUUUAAGGGUA [G28A A98G], the self-cleavage was 0.39.

For the variant GUUAACGGUCAUAGGCCAUGGAAACUAAGAGCACCAUUUCGCUGCCAGUGAAGAAAUGAACAAAGAAAAUCUGGGCCAGGCAGGCAUCAAAAGAAAUAGUCUUGCGCUCAACCAGAAAGUCUGUAAUCAUCUUAAGGGUA [G28A U131C], the self-cleavage was found to be 0.99.

As for GUUAACGGUCAUAGGCCAUGGAAACUAAGAGCACCAUUUCGCUGCCAGUGAAGAAACGAACAAAGAAAAUCUGGGCCAGGCAGGCAUCAAAAGAAAUAGUCUUGCGCUCAACCAGAAAGUCUGUAAUCAUUUUAAGGGUA [G28A U57C], the self-cleavage was found to be 0.4.

As for GUUAACGGUCAUAGGCCAUGGAAACUUGGAGCACCAUUUCGCUGCCAGUGAAGAAAUGAACAAAGAAAAUCUGGGCCAGGCAGGCAUCAAAAGAAAUAGUCUUGCGCUCAACCAGAAAGUCUGUAAUCAUUAUAAGGGUA [A27U U132A], the self-cleavage worked out at 1.42.

Consider GUUAACGGUCAUAGGCCAUGGAAACUAUGAGCACCAUUUCGCUGCCAGUGAAGAAAUGAACAAAGAAGAUCUGGGCCAGGCAGGCAUCAAAAGAAAUAGUCUUGCGCUCAACCAGAAAGUCUGUAAUCAUUUUAAGGGUA [G28U A68G], for which the self-cleavage came to 1.22.

Take GUUAACGGUCAUAGGCCAUGGAAACUAUGAGCACCAUUUCGCUGCCAGUGAAGAAAUGAGCAAAGAAAAUCUGGGCCAGGCAGGCAUCAAAAGAAAUAGUCUUGCGCUCAACCAGAAAGUCUGUAAUCAUUUUAAGGGUA [G28U A60G]: the self-cleavage was found to be 1.57.

As to GUUAACGGUCAUAGGCCAUGGAAACUUGGAGCACCAUUUCGCUGCCAGUGAAGAAAUGAACAAAGAAAAUCUGGGCCAGGCAGGCAACAAAAGAAAUAGUCUUGCGCUCAACCAGAAAGUCUGUAAUCAUUUUAAGGGUA [A27U U87A], the self-cleavage was 1.48.

Take GUUAACGGUCAUAGGCCAUGGAAACUAAGAGCACCAUUCCGCUGCCAGUGAAGAAAUGAACAAAGAAAAUCUGGGCCAGGCAGGCAUCAAAAGAAAUAGUCUUGCGCUCAACCAGAAAGUCUGUAAUCAUUUUAAGGGUA [G28A U39C]: the self-cleavage is 2.09.

As for GUUAACGGUCAUAGGCCAUGGAAACUAAGAGCACCAUUUCGCUGCCAGUGAAGAAAUGAACAAAGAAAAUCUGGGCCAGGCAGGCAUCAAAAGAAAUAGUCUUGCGCUCGACCAGAAAGUCUGUAAUCAUUUUAAGGGUA [G28A A110G], the self-cleavage was 0.17.

Take GUUAACGGUCAUAGGCCAUGGAAACUAUGAGCACCAUUUCGCUGCCAGUGAAGAAAUGAACAAAGAAAAUCUGGGCCAGGCAGGCAUCAAAAGAAAUAGCCUUGCGCUCAACCAGAAAGUCUGUAAUCAUUUUAAGGGUA [G28U U100C]: the self-cleavage was determined as 2.35.

As to GUUAACGGUCAUAGGCCAUGGAAACUAUGAGCACCAUUUCGCUGCCAGUGAAGAAAUGAACAAAGAAAAUCUGGGCCAGGCAGGCAUCAAAAGAAAUAGACUUGCGCUCAACCAGAAAGUCUGUAAUCAUUUUAAGGGUA [G28U U100A], the self-cleavage came out at 0.25.

GUUAACGGUCAUAGGCCAUGGAAACUACGAGCACCAUUUCGCUGCCAGUGAAGAAAUGAACAAGGAAAAUCUGGGCCAGGCAGGCAUCAAAAGAAAUAGUCUUGCGCUCAACCAGAAAGUCUGUAAUCAUUUUAAGGGUA [G28C A64G]: the self-cleavage worked out at 0.77.

For the variant GUUAACGGUCAUAGGCCAUGGAAACUAAGAGCACCAUUUCGCUGCCAGUGAAGAAGUGAACAAAGAAAAUCUGGGCCAGGCAGGCAUCAAAAGAAAUAGUCUUGCGCUCAACCAGAAAGUCUGUAAUCAUUUUAAGGGUA [G28A A56G], the self-cleavage was determined as 1.49.

Regarding GUUAACGGUCAUAGGCCAUGGAAACUAAGAGCACCAUUUCGCUGCCAGUGAAGAAAUGAACAAAGAAAAUCUGGGCCAGGCAGGCAUCAAAAGAAAUAGUCUUGCGCUCAACCAGAAAGUCUGUAAUCGUUUUAAGGGUA [G28A A129G], the self-cleavage stood at 0.99.

With GUUAACGGUCAUAGGCCAUGGAAACUUGGAGCACCAUUUCGCGGCCAGUGAAGAAAUGAACAAAGAAAAUCUGGGCCAGGCAGGCAUCAAAAGAAAUAGUCUUGCGCUCAACCAGAAAGUCUGUAAUCAUUUUAAGGGUA [A27U U43G], the self-cleavage turned out to be 1.64.

As to GUUAACGGUCAUAGGCCAUGGAAACUAAGAGCACCAUUUCGCUGCCAGUGAAGACAUGAACAAAGAAAAUCUGGGCCAGGCAGGCAUCAAAAGAAAUAGUCUUGCGCUCAACCAGAAAGUCUGUAAUCAUUUUAAGGGUA [G28A A55C], the self-cleavage is 1.7.

For the variant GUUAACGGUCAUAGGCCAUGGAAACUAAGAGCACCAUUUCGCUGCCAGUGAAGAAAUGAACAAAGAAAAUCUGGGCCAGGCAGGCAUCAAAAGAAAUAGUCUUGCGCUCAACCAGAAAGUCUGUAAUCAUUUUAAGGGUA [G28A], the self-cleavage was 1.09.

In the case of GUUAACGGUCAUAGGCCAUGGAAACUAUGAGCACCAUUUCGCUGCCAGUGAAGAAAUGAACAAAGAAAAUCUGGGCCAGGCAGGCAUCAAAAGAAAUAGUCUUGCGCUCAACCAGAAAGUCUGUAAUCAUUUUAAGGGUA [G28U], the self-cleavage was 0.74.

In the case of GUUAACGGUCAUAGGCCAUGGAAACUACGAGCACCAUUUCGCUGCCAGUGAAGAAAUGAACAAAGAAAAUCUGGGCCAGGCAGGCAUCAAAAGAAAUAGUCUUGCGCUCAACCAGAAAGUCUGUAAUCAUUUUAAGGGUA [G28C], the self-cleavage came to 0.93.

With GUUAACGGUCAUAGGCCAUGGAAACUAUGAGCACCAUUUCGCUGCCAGAGAAGAAAUGAACAAAGAAAAUCUGGGCCAGGCAGGCAUCAAAAGAAAUAGUCUUGCGCUCAACCAGAAAGUCUGUAAUCAUUUUAAGGGUA [G28U U49A], the self-cleavage worked out at 2.04.

As for GUUAACGGUCAUAGGCCAUGGAAACUAAGAGCACCAUUUCGCUGCCAGUGAAGAAAUGAACAAAGAAAAUCUGGGCCAGGCAGGCAUCAAAAGAAAUAGUCUUGCGCUCAACCAGAAAGUCUGUAAUAAUUUUAAGGGUA [G28A C128A], the self-cleavage came to 1.34.

With GUUAACGGUCAUAGGCCAUGGAAACUAAGAGCACCAUUUCGCUGCCAGUGAAGAAAUGAACAAAGAAAAUCUGGGCCUGGCAGGCAUCAAAAGAAAUAGUCUUGCGCUCAACCAGAAAGUCUGUAAUCAUUUUAAGGGUA [G28A A78U], the self-cleavage was 0.18.

GUUAACGGUCAUAGGCCAUGGAAACUAAGAGCACCAUUUCGCUGCCAGUGAAGAAAUGAACAAAGAAAAUCUGGGCCAGGCAGGCAUCAAAAGAAACAGUCUUGCGCUCAACCAGAAAGUCUGUAAUCAUUUUAAGGGUA [G28A U97C]: the self-cleavage came to 0.59.

With GUUAACGGUCAUAGGCCAUGGAAACUUGGAGCACCAUUUCGCUGCCAGUGAAGAAAUGAACAAAGAAAAUCUGGGCCAGGCAGGCAUCAAAAGAAAUAGUCUUGCGCCCAACCAGAAAGUCUGUAAUCAUUUUAAGGGUA [A27U U108C], the self-cleavage amounted to 0.03.

As for GUUAACGGUCAUAGGCCAUGGAAACUAAGAGCACCAUUUCGCUGCCAGUGAAGAAAUGAACAAAGAAAAUCUGGGCCAGGCAGGCAUCUAAAGAAAUAGUCUUGCGCUCAACCAGAAAGUCUGUAAUCAUUUUAAGGGUA [G28A A89U], the self-cleavage came out at 1.38.

Turning to GUUAACGGUCAUAGGCCAUGGAAACUAAGAGCACCAUUUCGCUGCCAGUGAAGAAAUGAACAAAGAAAAUCUGGGCCAGGCAGGCAUCAAAAGAAAUAGUCUUGCGCUCAACCGGAAAGUCUGUAAUCAUUUUAAGGGUA [G28A A114G], the self-cleavage was 0.35.

Values taken from the RNAGym collection of RNA variant scans (doi:10.7554/elife.90254).
